Results taken from US7048919B2, “Osteoclast secreted chemokine and uses thereof” (The UAB Research Foundation, priority 2000, dated 2006).

Tests used:
[1] = system: Vitamin D receptor binding to the VDRE in MG63 cells; assay: Vitamin D receptor binding to the VDRE, electrophoretic mobility shift assay; format: cell-based, human; settings: 2 μg/ml mim-1, absence of added 1,25(OH)2 D3
Description: Competitive displacement (CD) of vitamin D receptor interaction by 100× of cold probe. […] CD is competitive displacement as in FIG. 18A and NS is incubaton with 100× NonSpecific probe (vitellogenin estrogen response element), both were included as controls with 2 hr mim-1 extracts.
Double stranded oligonucleotide probe, corresponding to the VDRE from the human osteocalcin promoter, is ^32P-labeled with T4 kinase and incubated with nuclear extracts from MG-63 cells treated with 2 μg/ml of mim-1 for 0, 10, 30, 60 and 120 minutes, respectively. Vitamin D receptor interaction was displaced competitively by 100× of cold probe. The cells were then treated with mim-1 for 2 to 3 hrs and VDR/VDRE supershifted with a 1:5 or 1:10 dilution of VDR polyclonal antibody 4707. Competitive displacement with cold probe and incubaton with 100× vitellogenin estrogen response element as a non-specific probe were included as […] controls with 2 hr mim-1 extracts. VDR/VDRE from MG63 cells was compared to recombinant VDR heterodimer (rVDRhd).

mesenchymal stem cells = assay: Cell proliferation of osteoblast precursor cells; format: cell-based; settings: concentrations up to 2 μg/ml
MC3T3-E1 cells = assay: In vitro matrix mineralization (VonKossa staining, total calcium); format: cell-based; settings: 16 days
Description: MC3T3-E1 cells (2.5×10^4 cells/well) were cultured in DMEM/F12 plus 1% FBS in the presence of 10 mM glycerophosphate, 50 μg/ml ascorbic acid and either, 0, 3 or 15 nM (FIGS. 19A–C, respectively) of purified mim-1 for 16 days. […] 200× magnification, data is representative of n=2 experiments. VonKossa staining was confirmed by measuring total calcium in each well. Calcium was acid hydrolyzed, neutralized and measured on a Kodak Ektachem DTSC II and the results illustrated in the bar graph at the right. Calcium measurements are representative single determinations from 2 separate experiments.
MC3T3-E1 cells, seeded at 2.5×10^4 cells/well, were cultured in DMEM/F12 plus 1% FBS in the presence of 10 mM glycerophosphate, 50 μg/ml ascorbic acid and either 0, 3 or 15 nM of purified mim-1 for 16 days. […] VonKossa staining was confirmed by measuring total calcium in each well. The calcium was acid hydrolyzed, neutralized and measured on a Kodak Ektachem DTSC II.

[2] = system: cbfal binding to osteocalcin promoter in MG63 cells; assay: cbfal binding to osteocalcin promoter site, electrophoretic mobility shift assay; format: cell-based, human
Description: (§1) FIG. 17A show cells treated with 2 μg/ml of purified mim-1 for 0, 10, 30, 60, 120, and 240 min washed, lysed and nuclear extracts prepared. A 27 bp oligonucleotide from the osteocalcin proximal cbfal binding site was 5′ end labeled with γ^32P-ATP by T4 kinase. Equivalent amounts of nuclear extracts were incubated with the probe for 30 min and samples resolved on a 5% gel, fixed, dried and binding visualized by autoradiography.
as §1, with “Cells were treated” for “FIG. 17A show cells treated”, “240 min,” for “240 min”, “with ^32P-ATP” for “with γ^32P-ATP”, “by autoradiography for specific binding.” for “by autoradiography.”
Similarly, cells were treated with 0, 0.02, 0.3 and 2.0 μg/ml of mim-1 for 2 hrs and mobility shifts done as discussed.

[3] = system: mesenchymal stem cells (osteoblast precursors); assay: Transwell migration assay of calcein-loaded mesenchymal stem cells; format: cell-based
Description: Mesenchymal stem cells were loaded in the presence of 5 μM calcein in αMEM, and the cells washed twice with media. Cells were plated at 10,000 cells/well in the upper well of Neuroprobe transwell plates. The concentration dependence of mim-1 in migration assays was determined in the transwell migration assay with the indicated concentrations of mim-1 in the bottom chamber. Cells were cultured for 4 hours at 37° C. in a humidified chamber with 5% CO2. Remaining cells were scraped from the upper well and removed. Migration was measured on a fluorescence plate-reader which measures fluorescence in the bottom well and migration was quantified by comparisons with a standard curve generated by serial dilutions of calcein loaded cells plated directly in the bottom chamber. Data is from a single experiment performed in quadruplicate.

human bone marrow cells = assay: FACS analysis of human bone marrow cell cultures (CD14+); format: cell-based; settings: 2 μg/ml mim-1, 3 days
Description: Human bone marrow cells were cultured in IMDM with GM-CSF (50 ng/ml), IL3 (10 ng/ml) and 20 ng/ml SCF (controls) for 3 days −/+2 […] mim-1 and analyzed by FACS analysis. The remaining cells were cultured in colony formation assays an additional 14 days with the same growth factors minus or plus 2 μg/ml mim-1. Data is the average −/+ SEM of 3 separate experiments.
Human bone marrow cells were cultured in IMDM with GM-CSF (50 ng/ml), IL3 (10 ng/ml) and […] SCF (controls) for 3 days with or without 2 μg/ml mim-1. The cells were analyzed by FACS analysis. The remaining cells were cultured in colony formation assays an additional 14 days with the same growth factors with or without 2 μg/ml mim-1.

[4] = system: p42/44 MAP-kinase in MG63 cells; assay: p42/p44 MAP kinase activation, phospho-specific Western blot; format: cell-based, human
Description: Cells were treated with 2 μg/ml of purified mim-1 for the indicated times, washed, lysed and 25 […] protein resolved on 10% SDS PAGE. Protein was transferred to PVDF membrane and the membranes probed with phospho-specific p42/p44 MAP kinase antibody (New England Biolabs).
Mim-1 also stimulated the increased p42/44 MAP-kinase phosphorylation in a time-dependent manner in MG63 cells. The time dependence of mim-1 activation of MAP kinase by Western analysis with the phospho specific MAP kinase antibody was tested. This antibody detects only the phosphorylated (activated) form of MAP kinase (FIG. 16). Mim-1 stimulates the time dependent activation of MAP kinase with maximal effects at 3 minutes (compare this with 2 μg/ml in FIG. 15). The concentration dependence for activation of MAP kinase was maximal at 1–2 μg/ml (not shown) similar to the effects of mim-1 on tyrosine phosphorylation (FIG. 15).

A549, lung cancer = assay: Cancer cell growth inhibition, cell counts; format: cell-based, human; settings: A549, three days, 0.5-4 μg/ml mim-1
Description: (§2) Cancer cells (A549, lung cancer; MDA231, Breast cancer; and AD10, ovarian cancer) were cultured for three days in the presence of the indicated concentrations of mim-1. Cells were counted in 10 random grids, and the data is plotted as Percent of Control (no added mim-1). Data are representative of 2 separate experiments.
(§3) Three cancer cell lines (A549, lung cancer; MDA231, breast cancer; and AD10, ovarian cancer) were cultured for three days in the presence of 0 (control), 0.5, 1, 2 and 4 μg/ml of mim-1. Cells were counted in 10 random grids, and the data is plotted as Percent of Control (no added mim-1).

AD10, ovarian cancer = assay: Cancer cell growth inhibition, cell counts; format: cell-based, human; settings: AD10, three days, 0.5-4 μg/ml mim-1
Description: as §2, §3

MDA231, breast cancer = assay: Cancer cell growth inhibition, cell counts; format: cell-based, human; settings: MDA231, three days, 0.5-4 μg/ml mim-1
Description: as §2, §3

mouse marrow macrophage = assay: Osteoclast-like cell differentiation, mouse marrow macrophage differentiation model; format: cell-based; settings: presence of M-CSF and soluble RANKL

B1: mim-1: 35 kD osteoclast secreted chemokine-like protein, SEQ ID NO: 8, homologous with Lect2 (protein, listed as Gallus gallus)
chain: MPALSLIALLSLVSTAFARQWEVHPPQQQGRHWAQICSGNPFNRIRGCDRYGCGNYGASRQGKGEKHKGVDVICTDGSIVYAPFWGQLSGPIRFFHNGNAIDDGVQISGSGYCVKLVCIHPIRYHGQIQKGQQLGRMLPMQKVFPGIVSHIHVENCDQSDPTHLLRPIPDISPPFPQQDAHWAVVCAGNPTNEIRGCKDYGCGYFGAPRRNGKGEKHKGVDVICADGATVYAPFSGELSGPVKFFHNGNAIDDGVGIRGSGFCVKLLCIHPIRYNGRISKGQVLGRMLPMQRVFPGIISHIHVENCDRSDPTSNLERGKGESEMEV
modifications: amino acid sequence of mim-1 protein
- Vitamin D receptor binding to the VDRE [1]: stimulated Vitamin D receptor binding to the VDRE in a time dependent manner
- effect on cell proliferation (mesenchymal stem cells): no effect
- concentration of maximal effect on mineralization (MC3T3-E1 cells): 0.5 µg/mL
- cbfal binding above control levels ([2]; 20 ng/ml mim-1, 2 hrs): ~2 fold
- concentration to stimulate cbfal binding lower than that to stimulate tyrosine phosphorylation ([2]; 20 ng/ml versus tyrosine phosphorylation): 5–10 fold
- time of maximal cbfal binding ([2]; 2 μg/ml mim-1): 2 h
- increase in binding of cbfal transcription factor to osteocalcin oligonucleotide probe ([2]; 2 μg/ml mim-1, MG63 cells): five-fold
- decrease in cbfal binding from maximum ([2]; 2 μg/ml mim-1, by 4 hours): ~30%
- concentration of maximal effect on mesenchymal stem cell migration ([3]; 4 hours, purified mim-1 in bottom chamber): approximately 100 ng/ml
- concentration to stimulate migration lower than that to stimulate tyrosine phosphorylation ([3]; migration versus tyrosine phosphorylation): five- and ten-fold
- proportion of CD14+ cells (human bone marrow cells): increase in the proportion of cells that are CD14^+
- time of maximal activation of MAP kinase ([4]; 2 μg/ml mim-1): 3 min
- concentration of maximal activation of MAP kinase ([4]; not shown): 1 to 2 µg/mL
- inhibition of cell growth (A549, lung cancer): concentration dependent inhibition of cell growth
- inhibition of cell growth (AD10, ovarian cancer): concentration dependent inhibition of cell growth
- inhibition of cell growth (MDA231, breast cancer): concentration dependent inhibition of cell growth
- osteoclast-like cell differentiation (mouse marrow macrophage): effectively blocks osteoclast-like cell differentiation
